Experiment: soluble fraction after stress (log2 fold change); higher = more stays soluble; pooled small domains, quantitative proteomics
Details: stress: 75 degC
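Also: 20 min heating vs room temperature control held 20 min.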

Row | Sequence | soluble fraction (log2)
1 | HMETENLSPREREILEYIVKGYSYKMIAADLNIATETVRSHIKKIYKKLQVNSATEAVYKYSN | -1.51
2 | HMETEQVEMIRVVGMHVDEAKKALLDLGLSPEIKYEESSSYDAGTVLRASVQDGLMIDKGTNIVLTVAEA | 0.293
3 | HMETFEKIKELAKKRGKALGQVEEDLGYGRNTLYKIKNSTPNAERIAEIANYFNVSTDYLLGRTDNPTIAK | 0.108
4 | HMETFNMTQKEITRLRVINQAIDKVITIREAAELLGLSERQVIRLKGGVEKFGPAFIIHKNRGRKP | -1.57
5 | HMETGLSNYEFKRIREQAEALLSDGQVRRINDLVDSIKNENAEKVIRVIRFLIDTEELILEDDRVSAKKS | -0.615
6 | HMETIVGIDPDSKKKIVLKKGIKGRPDYLSFNKKNYSLPSELKEKNVSLEQALEIINDKKSNKKKIK | 0.369
7 | HMETLSKVGSTGSEVRQIQTKLKNWGYFSDKVDGIYGEKTRAAVVWFQKKNGLTADGIAGPATLKAMGIYT | -0.705
8 | HMETLSVRERMTSIISLLNKHEDIEFSKLFNISEGRLGVVVTFLALLELVKESLVDVIQNQPMSKLYIGKK | -0.278
9 | HMETLTPQEHKVLLLAVKGRTNGEIASELGIAQNTVKNHLAHIYAKMGVGNRTELASEYLRRIH | -0.203
10 | HMETTEELISKTVPISYADMAALTGILDGVKSARGDIQVDDRTSTIIIHDIQSSIDEMMRLIKILD | -1.04
11 | HMETTMVEIKAEFTIRNRLDIPAMMEKAGYKDRGEFLSVLEKITGNYNWDRDVKKGDTFMVPSKLA | -1.75
12 | HMETVPMIDLRGMTQEQAEKAIVGLGLTVGTVDHSSSDMPAGQVWFQSVEPKDEVAPGTKVNIIISTGS | 0.0577
13 | HMETYNLDVGDSAVLQYQNVSRISVGNPDVLDAIPLDKSQILLTGKATGGAALIVWDSKGMHMEKVMVHPA | -0.428
14 | HMETYTVSSKDGYANVRNEATVNSDLIAELKNGTLVTKFKEKGEWYYIEFEREDGTPFDYGYIHKSQLK | -0.00382
15 | HMEVALEVPELRGLSMKQATNTLMASGFEVQKVGSGTIYAQFPLPGERLRTGYAVTIRGKTRDLG | -0.345
16 | HMEVAPEKVLEALNELPEIYKIVLNLYAVENMSHKEIAKKLGISLGSSKSRLSRGRVMLNTLLNR | -1.3
17 | HMEVDWLEVEKVIVSSSYSWMENSPKVKLLQEYIGVTADGIYGLGTWGAHRTHAVDLGFINLSYPIP | -0.129
18 | HMEVEADEFQQLLRSGEYVQALDRARANQDIGLRQQQIVQIARHQAASGIQAGAMGSLASLYQF | -0.0286
19 | HMEVHLMPGTVLLREYESNEYRVTVTPEGFYDLNGKVFKSLSAVARHITGVNWSGPRFFGVEP | -2.81
20 | HMEVLSYYGSRGQEVVNIQTKLKQWGYYKGNIDGIFGNLTYQAVREFQRKNGLKVDGIVGPETLAALGLPT | -2.64
21 | HMEVPQVETEKVEAKLKEAEVLLVKVTDSSLKANATETLAGLRNNLTLQTMDNNGIMAEAEKLLALLRES | 0.0802
22 | HMEVPTGNHIRRWRKSLDITQVKLSSLSGVAQSIIAKIENETVDPRVSTLRKLVEALSRFENP | -1.89
23 | HMEVQVGKQVRAFRETLGMTVQQFAERTGFSAALLAQIENRMVSPSLGTLVKIANTFGTTVSSFIG | -0.0249
24 | HMEVSTDADFEAVGIRAELIPILQKLGFTTVAQLKEVKATKLFNDIPGMRKKLKLDAVQNPTLQEIEGWLK | -0.0412
25 | HMEVTLEEKLSYVEEYAKVHSHFSFRDLLKKQASKTQIVVTFLAILELMKTGKIQITQEHIFDDIVITAK | 0.0631
26 | HMEVTYQETLRVLYNAIDKLPPQTKEIILIGLDGKDNNEIAATLNISVNTVKTLKKNAYKTLRELLVD | 0.0283

Row | Sequence | soluble fraction (log2)
27 | HMEWNPEKQHLLENYITNYSRQLNDTGLFYKNLDWNYIFNLVGVDDQEFLMLKIDEIYDESINVY | -1.74
28 | HMEWNREQLEQIVLQHIRKHGFITRATYTELTGRLKNSALADLKSFAAEGIIKRVGRGNQMHFIVPL | -2.35
29 | HMEWTDHLAEELRSLAVEGEHLEIIANKLGISPGSARAKLVNLNIYNDYQLAHIERLEADTLQAK | -0.349
30 | HMEYFDDEELDRYKGRTSDSFTDDEAEEFREVMMTMHPEEVKAWNRSLILRDVAMPDQIKDDYIMLAG | -0.141
31 | HMEYKYNPADYPYPLNEDIEKVYSAYREKSIGKLEAAVQNLYYTLKQARRDNILSDVKVNEMQQYFLALRN | -0.857
32 | HMEYNLTLEELNRDLYIRGEIWNVGDVVKTTDGDEGTIIRKGTNYVVFEDLRRVWLHNLEEVK | -1.51
33 | HMEYREFEAMTIRAIATLPPTQGHVIMLSRFEGLDNKEIALRLNLSLQTVKNTLTQGLKELKNKMRKLP | -2.02
34 | HMEYSAAYDRELESIFNLTERGKWEEAEAEVGLLLQQYPEDKTLLRISEWVATQKTILREQAIEDRIRS | -0.0776
35 | HMEYSYKLIDLLVDRFSEEGVDPEEAREYINLFHRFSQGLDPDKRDITKYSWDELYRTVNDKKDS | 0.664
36 | HMEYTVNHYPEKHRFEVVEDGLTAYVEYRLRGDALDIIHTIVPKNLEGRGIAATLVETAYKYAKEQ | -1.27
37 | HMFAAIFADDSGFTTRSKRFGPYVEEIAADWQAVKQLSDEDAKQALVPLVKKIELALSTLQQFVSSV | -0.166
38 | HMFAATGTVNTEGSSLRLRAEASTSSSVLKQLSHGTQVDVLSGLVDGWYQVSYKGTTGYVSGEYLTVTE | -0.704
39 | HMFADLNPDENYGQVYIRTNTIDNLYQTLLDNKTRIHPNGLLELKPWGQKEFSILDPDKNLLTFGES | -0.00771
40 | HMFAERLKELRKMRRFSQHALAERLGISQQAVGKWETGKSTPDPATLREIADIFEVSVDLLLGR | -1.17
41 | HMFDDEELDRFAGVPADAYLPADEDEFREVFYTMRPGEVVEWVRSLELRHIEIPNGIKDEIFMMIR | -3.97
42 | HMFDEDKLIISIGSKVRIIREPYFGTIGKVVELPPELVKMDTEAMLRVAIIKLDDGEKVTIPRANLEVILS | -2.43
43 | HMFDEVKDAARRLAALLDQAGGTLTLNDKSAPEEVAALTGMSKKVFKRALGHLMSRSEVVVADGRITKKD | -0.709
44 | HMFDGRSDAEKTLDLIKTAIDNILKGGAIQEYKIGTRTAKKYDMAELQVLKGEYAAMVAREKQAETMA | -0.412
45 | HMFDGVAAGKPAILDALEDAGGFLPLNSKSSVEEIQASFSFSKRVFKQLIGMLYKERKIVITDDGIRLAD | -0.279
46 | HMFDGYQWLKRDIIRGVYQPEEKLRMSLLTNRYGLGVGPLREALSQLVAEHLVTVVSQKGYRVAPM | -0.387
47 | HMFDKNKPVVVEGENAEVALKKVSKYFNVPTEKLDYTLLGQKSAGLLGIGSKVYQFKVWLKREIP | -0.249
48 | HMFDLENIRLTLARRLNVAAHLRPKYVAGFTLLLKQNFPEQNAEDLLNRLEHNQWLKVNQREIEYSPRLLM | -1.63
49 | HMFDPAKQMQRIRKYAGMNRKEFSEWLNIPYRTMTDWELGNRTMPVYLLELIVYKVNHEIANA | 0.588
50 | HMFDREKFIKLGQEFARVAFENVNKRATDRALKTAAKHYGLPSADELLARLGSSEIAARDVVAELYPNL | -0.856
51 | HMFDSYDIYDEAGNTVNTVKGKLSWGHLLEIYDRFDNHIGTVQERVLTFLPKFLMYINGQEIGEIR | -0.164
52 | HMFDVNSMIAANIVAILKKQNRKQIDLAGALQTNKQTISKMLNGSRMINAIELKRIAEFLGVKMEELTKL | -2.23

Row | Sequence | soluble fraction (log2)
53 | HMFDVRWEQGYALAAAYAQEYGNLDVPRDYKTADGKKLGRWIQSQEQAYEQKKLSEEQISRLEMIGMQWG | -0.98
54 | HMFEDEPSEREIRISTLLAAFLKQEDGGTAVSRERFLKENSDVAEDLQILLEMADMIQEMAGP | -0.546
55 | HMFEKIDINFADIHQLKGLPLNSEQINSIIEYRNQNGFIENIYDLKNVNGISIDKVHELKSYIFIIDV | -2.58
56 | HMFENPRALLEMMISLGNEQGLINMARDIVSAGEFRRLELAAGGDRRKLARMLIDHLVEVAPRLP | -0.915
57 | HMFEQFEVENLQELQQEWGDKFNHNLEMARRAFMNFATPEAVKVLEETGMGNHPELLKVFARIGEVLAED | -0.968
58 | HMFERINLIGVNGTTKKRSALVRLLDGEIVKIGVGDSLNGGQVVDISPATLTYLKSGKSIMLTLPK | -1.79
59 | HMFGQRLRLARKRAGLSMQALAQRMSPPVTAQAISKYEADRMMPSSAVLVGLGKALGVSLDFLMGGQ | -2.14
60 | HMFHFELNAAKQALEDRKTIDRAKGILMRQRGMSEDDAYKLLRTTAMSQNRKVIDVAQALVTAADLL | -0.632
61 | HMFINTVELGRAIKRRREELGLSLRDVADVTNVSASTLSRIENGTGKPDADNIARLTGWLDMPIDRVM | -0.161
62 | HMFIRINQTQNSPRKSVQIVESKRDGHKVRTKILRHVGIAMDDVELQKLKSLAQDIIAKMTVETENASKQ | -0.529
63 | HMFKINQKVKLIAPLPYLKTSENMPMLRPPDLVAIDEIGEVLSLKSPETVEVRFRRGSFLIDIDKLEKVD | -1.77
64 | HMFKYLLDTNIVIYVIKKRPIEVMGVFNQNANRMAISAITFSELQHGAEKSVRVQENLNAIEEFTTLIDI | -0.0448
65 | HMFKYRELLDWAKNRFDDLEVSIAPKALALLVESIGTDLRLLDSEIQKLSMYKPLEMISTNDVEDLVA | -1.01
66 | HMFLTDHEVSKVARKRAHAEYLSSLSWRQRTFGDHGERSKNFEAWYKEHSHLYETEKLYKELYKN | -1.03
67 | HMFLTPLEEARLVIEEIVIPKNIAVDLSPRPSALRKQQHELIAHYQLKSFSVGNERTKRLRILPKVI | 0.229
68 | HMFMLQAKRVPVSELENFKGIVAEDVVSQSRALILPRGSNLSWLSSSAMQNLSTRLALEGVESISIYL | -2.68
69 | HMFMVAGHLSEKNGYFYAVINYNDSLGNRKTKWMSTGLTVKGNKKRAEAILAEKRRTFQPDEPV | -1.71
70 | HMFNDPTMEDALVNLKGITNEVLSYLSSSKIKKLEELAEMSVPELKDIVENISDDEASALIMEARKPWF | -0.373
71 | HMFNEFEDIPDIISAEGIDPAMREEVAANLKKYYKNPDAMLALAPLEREYYEKLVGILSEKIELKKEN | 0.802
72 | HMFNFPEEVRVQLAKSEQLRNLLIPMSETVRDALSGEELWFGRTIFNTTSKKIESWTNPGVWVE | -1.39
73 | HMFNIIARQEIDEILYEYKIENSEDYKNRDPEELAEIYENIKTVQENHDLSDDDVEELLKSIFSDY | -1.25
74 | HMFNKTKVPNFIDMNYYEEIEGNSEYDKFNFADPITKNDDTKAPGTVIDQTPEKGTRIDEEKTVIQLTIA | 0.114
75 | HMFNRAVSDNEALQVREHFDRDATVMSLAKKYGVSTVTIQRILLGKTYRNVGGPLFDKATLKKRMGN | -1.2
76 | HMFNVKAYEKAVKSYITKRKPLGEALDEEIMDELSVKFGIVDDALEDLFKQIQDAGISIVDKDGNPSPLAL | -0.792
77 | HMFPELEPDEQLIADLLRKTNNLQINIITVRTGLPINRVTALLFQMEMKGVVRPLAGGTYHLLV | -2.14
